Data as given in patent publication US20240043533A1 (NGM BIOPHARMACEUTICALS, published 2024).
Numbering of substitutions follows the chain as printed.

Key:
[1] = target: T1, extracellular domain of human ILT3 (huILT3-ECD) (human, UniProt Q8NHJ6 22-259); assay: SPR (Biacore), antibody captured via anti-Fc on CM5 chip, soluble ILT3-ECD injected
T1 construct: also called human ILT3-ECD
Method: (§1) The binding affinities of anti-ILT3 antibodies to human ILT3 and cyno ILT3 were measured using a Biacore system (GE Healthcare LifeSciences). Briefly, anti-Fc antibody (Sigma-Aldrich) was immobilized on all four flow cells of a CM5 chip using amine coupling reagents (GE Healthcare LifeSciences). Antibodies were captured on flow cells 2, 3, and 4 using flow cell 1 as a reference. Concentrations ranging from 3.3-10 nM of human or cyno ILT3-ECD were injected at a flow rate of 50 μL/min at 37° C. Kinetic data were collected over time and fit using the simultaneous global fit equation to yield affinity constants (KD values) for each antibody.
(§2) The binding affinities of various Hz48A6 and Hz45G10 antibodies to human ILT3 and cyno ILT3 were also determined using a Biacore system as described herein. Humanized antibodies comprising various combinations of a heavy chain variable region and a light chain variable region and a human Fc domain were tested, and compared with the binding affinity of the parental chimeric antibody (48A6 chimera comprising mouse 48A6 heavy and light variable regions and a human Fc domain, or 45G10 chimera comprising mouse 45G10 heavy and light variable regions and a human Fc domain).

[2] = target: T2, extracellular domain of cyno ILT3 (cynoILT3-ECD) (cynomolgus monkey); assay: as above
T2 chain: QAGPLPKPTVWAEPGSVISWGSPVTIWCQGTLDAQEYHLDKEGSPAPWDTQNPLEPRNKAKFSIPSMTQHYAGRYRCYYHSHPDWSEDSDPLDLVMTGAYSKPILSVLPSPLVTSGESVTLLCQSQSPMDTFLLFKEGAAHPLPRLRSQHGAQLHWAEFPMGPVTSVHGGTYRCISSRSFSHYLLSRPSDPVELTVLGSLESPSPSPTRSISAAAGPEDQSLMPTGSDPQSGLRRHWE
Method: as §1, §2

[3] = target: T1, extracellular domain of human ILT3 …; assay: SPR (Biacore), antibody captured via anti-Fc on CM5 chip, soluble ILT3-ECD injected, 37 C
Method: as §1

[4] = target: T2, extracellular domain of cyno ILT3 …; assay: as above
Method: as §1

human LILRA1 = target: T3, human LILRA1 (human, UniProt O75019 17-489); assay: FACS on cells expressing human LILRA1, labeled anti-mouse Fc secondary antibody
T3 construct: whole, on cells
T3 sequence (O75019 17-489): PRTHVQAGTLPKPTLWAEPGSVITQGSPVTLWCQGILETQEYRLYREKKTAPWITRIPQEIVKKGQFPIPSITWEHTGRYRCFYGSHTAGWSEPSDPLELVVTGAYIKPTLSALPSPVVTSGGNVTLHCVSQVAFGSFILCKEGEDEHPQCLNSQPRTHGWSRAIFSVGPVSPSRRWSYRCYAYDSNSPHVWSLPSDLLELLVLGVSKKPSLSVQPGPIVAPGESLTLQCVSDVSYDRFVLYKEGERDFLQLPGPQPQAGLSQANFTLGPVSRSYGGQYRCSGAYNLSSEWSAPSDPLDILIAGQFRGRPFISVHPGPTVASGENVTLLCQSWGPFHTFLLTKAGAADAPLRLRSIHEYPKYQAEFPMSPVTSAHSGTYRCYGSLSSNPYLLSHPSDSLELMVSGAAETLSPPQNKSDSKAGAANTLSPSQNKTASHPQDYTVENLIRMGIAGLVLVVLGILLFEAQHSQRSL
Method: (§3) ELISA assays were used to screen antibodies against human ILT3 and human LILRA1,2,4-6. […] These antibodies were rescreened by FACS for binding to human ILT3 and cyno ILT3 expressed on HEK-293T cells. The antibodies that bound to both human and cyno ILT3 were selected. This subset of antibodies were screened by FACS against human LILRB1-5 (ILT2, ILT4, ILT5, ILT3, and LILRB5, respectively), cyno LILRB5, and human LILRA1,2,4-6. For FACS screening, each antibody was incubated with cells expressing human ILT3, cyno ILT3, one of the LILRA proteins, or one of the LILRB proteins for 30 minutes at 4° C. After washing, the cells were incubated with labeled anti-mouse Fc antibody for 30 minutes at 4° C. After washing, cells were analyzed on a flow cytometer. Antibodies were selected on the criteria of binding to human ILT3, cyno ILT3, no or limited binding to other LILRB proteins, and no or limited binding to LILRA proteins.

Cyno LILRB5 = target: T4, Cyno LILRB5 (Macaca fascicularis, UniProt A0A2K5VIP6); assay: FACS on cells expressing cyno LILRB5, labeled anti-mouse Fc secondary antibody
T4 construct: expressed on the cell surface; also called cynomolgus LILRB5
T4 sequence (A0A2K5VIP6 entry or part of it): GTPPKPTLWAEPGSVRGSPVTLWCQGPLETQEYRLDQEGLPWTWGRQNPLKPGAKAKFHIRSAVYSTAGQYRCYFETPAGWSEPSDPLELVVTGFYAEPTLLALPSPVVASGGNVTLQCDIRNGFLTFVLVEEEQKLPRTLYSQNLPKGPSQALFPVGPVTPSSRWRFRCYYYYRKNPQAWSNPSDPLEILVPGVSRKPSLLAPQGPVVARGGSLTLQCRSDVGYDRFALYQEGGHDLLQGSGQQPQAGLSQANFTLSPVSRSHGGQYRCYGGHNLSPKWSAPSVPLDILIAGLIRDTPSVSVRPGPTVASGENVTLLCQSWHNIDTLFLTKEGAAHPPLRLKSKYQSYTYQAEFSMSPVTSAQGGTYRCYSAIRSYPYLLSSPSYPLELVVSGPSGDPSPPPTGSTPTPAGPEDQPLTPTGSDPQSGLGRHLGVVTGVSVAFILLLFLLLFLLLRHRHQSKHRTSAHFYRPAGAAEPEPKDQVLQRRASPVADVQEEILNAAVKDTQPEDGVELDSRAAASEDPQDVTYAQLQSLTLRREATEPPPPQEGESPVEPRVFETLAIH
Method: as §3

LILRB5 = target: T5, LILRB5 (human, UniProt O75023); assay: FACS on cells expressing human LILRB5, labeled anti-mouse Fc secondary antibody
T5 construct: expressed on the cell surface; also called human LILRB5; CD85C
T5 sequence (O75023 24-590 limits assumed): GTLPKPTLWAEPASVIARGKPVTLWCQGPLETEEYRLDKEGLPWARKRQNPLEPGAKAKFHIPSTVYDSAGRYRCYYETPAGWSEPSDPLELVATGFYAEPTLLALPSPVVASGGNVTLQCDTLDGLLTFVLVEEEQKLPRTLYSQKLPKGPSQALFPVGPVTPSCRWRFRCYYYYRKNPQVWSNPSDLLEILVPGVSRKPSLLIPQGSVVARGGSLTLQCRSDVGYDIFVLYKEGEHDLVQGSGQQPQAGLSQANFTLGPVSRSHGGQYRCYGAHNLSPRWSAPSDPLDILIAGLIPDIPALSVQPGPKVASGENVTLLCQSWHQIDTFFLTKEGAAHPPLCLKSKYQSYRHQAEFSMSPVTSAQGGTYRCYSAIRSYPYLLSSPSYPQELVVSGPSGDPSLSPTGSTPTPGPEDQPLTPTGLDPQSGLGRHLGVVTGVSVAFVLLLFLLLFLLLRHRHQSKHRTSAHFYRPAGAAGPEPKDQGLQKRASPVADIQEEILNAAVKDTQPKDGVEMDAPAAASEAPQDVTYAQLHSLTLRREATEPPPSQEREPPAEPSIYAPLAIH
Method: as §3

human LILRA6 = target: T6, human LILRA6 (human, UniProt Q6PI73 24-447, limits assumed); assay: FACS on cells expressing human LILRA6, labeled anti-mouse Fc secondary antibody
T6 construct: Read out of the printed 'LILRA1,2,4-6'
T6 sequence (Q6PI73 24-447 limits assumed): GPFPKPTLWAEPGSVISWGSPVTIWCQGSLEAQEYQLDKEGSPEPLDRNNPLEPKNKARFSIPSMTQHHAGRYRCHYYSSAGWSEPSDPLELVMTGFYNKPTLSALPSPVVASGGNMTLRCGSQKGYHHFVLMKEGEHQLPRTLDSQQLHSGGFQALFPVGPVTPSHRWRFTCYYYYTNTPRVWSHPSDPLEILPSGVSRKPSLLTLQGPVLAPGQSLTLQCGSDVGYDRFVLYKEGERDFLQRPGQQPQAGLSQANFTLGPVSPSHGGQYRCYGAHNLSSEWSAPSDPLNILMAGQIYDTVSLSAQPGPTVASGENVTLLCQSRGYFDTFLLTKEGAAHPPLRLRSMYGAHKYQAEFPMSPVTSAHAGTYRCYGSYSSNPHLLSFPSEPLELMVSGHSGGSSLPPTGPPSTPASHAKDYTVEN
Method: as §3

human LILRA2 = target: T7, human LILRA2 (human, UniProt Q8N149 24-483); assay: FACS on cells expressing human LILRA2, labeled anti-mouse Fc secondary antibody
T7 construct: whole, on cells
T7 sequence (Q8N149 24-483): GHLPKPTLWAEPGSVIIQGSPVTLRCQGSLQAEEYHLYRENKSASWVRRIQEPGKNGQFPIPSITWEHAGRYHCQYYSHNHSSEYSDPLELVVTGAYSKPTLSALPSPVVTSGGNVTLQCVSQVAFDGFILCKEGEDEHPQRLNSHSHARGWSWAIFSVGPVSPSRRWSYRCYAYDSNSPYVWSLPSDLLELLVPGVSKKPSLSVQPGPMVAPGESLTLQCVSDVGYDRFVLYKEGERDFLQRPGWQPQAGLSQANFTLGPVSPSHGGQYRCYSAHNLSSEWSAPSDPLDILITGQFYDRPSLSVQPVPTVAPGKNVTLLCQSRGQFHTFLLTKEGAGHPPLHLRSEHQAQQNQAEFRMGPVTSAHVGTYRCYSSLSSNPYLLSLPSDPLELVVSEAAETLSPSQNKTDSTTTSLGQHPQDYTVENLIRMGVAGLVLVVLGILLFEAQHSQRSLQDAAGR
Method: as §3

human LILRA5 = target: T8, human LILRA5 (human, UniProt A6NI73 42-299); assay: FACS on cells expressing human LILRA5, labeled anti-mouse Fc secondary antibody
T8 construct: whole, on cells
T8 sequence (A6NI73 42-299): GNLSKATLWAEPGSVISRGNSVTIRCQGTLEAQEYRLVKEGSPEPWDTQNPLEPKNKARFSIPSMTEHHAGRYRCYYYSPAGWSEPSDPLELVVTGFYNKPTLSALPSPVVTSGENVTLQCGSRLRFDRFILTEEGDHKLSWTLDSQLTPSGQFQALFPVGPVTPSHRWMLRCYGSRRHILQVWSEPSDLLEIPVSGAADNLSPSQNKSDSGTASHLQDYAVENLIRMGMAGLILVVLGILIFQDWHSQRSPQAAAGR
Method: as §3

human LILRA4 = target: T9, human LILRA4 (human, UniProt P59901 24-499); assay: FACS on cells expressing human LILRA4, labeled anti-mouse Fc secondary antibody
T9 construct: whole, on cells
T9 sequence (P59901 24-499): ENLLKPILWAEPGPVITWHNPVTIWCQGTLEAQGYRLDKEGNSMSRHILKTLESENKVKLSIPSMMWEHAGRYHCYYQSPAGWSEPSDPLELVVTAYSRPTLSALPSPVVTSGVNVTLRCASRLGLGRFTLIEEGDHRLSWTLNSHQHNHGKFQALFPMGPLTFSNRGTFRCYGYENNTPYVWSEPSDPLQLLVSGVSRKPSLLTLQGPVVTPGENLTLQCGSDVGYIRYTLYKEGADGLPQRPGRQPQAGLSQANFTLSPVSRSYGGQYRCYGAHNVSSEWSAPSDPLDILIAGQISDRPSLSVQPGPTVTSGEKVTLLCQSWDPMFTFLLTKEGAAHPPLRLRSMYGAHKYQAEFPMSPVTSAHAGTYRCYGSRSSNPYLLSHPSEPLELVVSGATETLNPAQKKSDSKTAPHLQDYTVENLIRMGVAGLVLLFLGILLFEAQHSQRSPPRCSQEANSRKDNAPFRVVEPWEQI
Method: as §3

LILRB4 = target: T10, LILRB4; assay: FACS on cells expressing human LILRB4 (ILT3), labeled anti-mouse Fc secondary antibody
T10 construct: the construct expressed on the cells is not described further; also called human ILT3 expressed on cells for the FACS screen; ILT3
T10 sequence (receptor, as listed by the source limits assumed): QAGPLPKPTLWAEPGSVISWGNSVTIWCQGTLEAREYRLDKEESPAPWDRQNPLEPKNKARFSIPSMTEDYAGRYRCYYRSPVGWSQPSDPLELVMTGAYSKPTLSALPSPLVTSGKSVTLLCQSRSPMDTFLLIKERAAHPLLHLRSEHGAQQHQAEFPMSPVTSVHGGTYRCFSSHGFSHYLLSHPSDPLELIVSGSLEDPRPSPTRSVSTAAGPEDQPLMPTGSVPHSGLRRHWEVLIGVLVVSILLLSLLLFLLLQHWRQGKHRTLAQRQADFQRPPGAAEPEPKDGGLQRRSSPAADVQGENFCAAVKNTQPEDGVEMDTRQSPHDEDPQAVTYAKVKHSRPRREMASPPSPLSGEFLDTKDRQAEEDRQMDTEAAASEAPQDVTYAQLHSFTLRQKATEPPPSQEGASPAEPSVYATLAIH
Method: as §3

LILRB3 = target: T11, LILRB3 (human, UniProt O75022); assay: FACS on cells expressing human LILRB3, labeled anti-mouse Fc secondary antibody
T11 construct: expressed on the cell surface; also called human LILRB3; ILT5
T11 sequence (O75022 24-631 limits assumed): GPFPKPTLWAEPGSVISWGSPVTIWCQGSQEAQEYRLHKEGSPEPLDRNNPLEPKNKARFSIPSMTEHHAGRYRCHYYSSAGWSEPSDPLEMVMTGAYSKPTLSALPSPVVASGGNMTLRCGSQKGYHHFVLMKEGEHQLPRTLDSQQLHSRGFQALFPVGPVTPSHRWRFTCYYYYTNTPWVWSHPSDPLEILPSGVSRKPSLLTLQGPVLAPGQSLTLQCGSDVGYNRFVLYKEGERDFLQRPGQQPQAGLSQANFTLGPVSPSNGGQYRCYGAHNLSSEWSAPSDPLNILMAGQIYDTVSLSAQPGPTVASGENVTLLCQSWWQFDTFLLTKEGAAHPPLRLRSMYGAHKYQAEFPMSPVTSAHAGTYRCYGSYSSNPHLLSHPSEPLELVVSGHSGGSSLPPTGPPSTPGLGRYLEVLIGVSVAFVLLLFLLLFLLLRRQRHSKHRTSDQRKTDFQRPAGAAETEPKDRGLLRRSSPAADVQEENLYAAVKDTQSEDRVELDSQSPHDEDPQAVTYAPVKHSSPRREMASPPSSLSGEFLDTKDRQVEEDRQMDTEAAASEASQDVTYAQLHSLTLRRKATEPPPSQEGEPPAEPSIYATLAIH
Method: as §3

human LILRB2 = target: T12, human LILRB2 (human, UniProt Q8N423 22-597); assay: FACS on cells expressing human LILRB2, labeled anti-mouse Fc secondary antibody
T12 construct: whole, on cells; also called ILT4
T12 sequence (Q8N423 22-597): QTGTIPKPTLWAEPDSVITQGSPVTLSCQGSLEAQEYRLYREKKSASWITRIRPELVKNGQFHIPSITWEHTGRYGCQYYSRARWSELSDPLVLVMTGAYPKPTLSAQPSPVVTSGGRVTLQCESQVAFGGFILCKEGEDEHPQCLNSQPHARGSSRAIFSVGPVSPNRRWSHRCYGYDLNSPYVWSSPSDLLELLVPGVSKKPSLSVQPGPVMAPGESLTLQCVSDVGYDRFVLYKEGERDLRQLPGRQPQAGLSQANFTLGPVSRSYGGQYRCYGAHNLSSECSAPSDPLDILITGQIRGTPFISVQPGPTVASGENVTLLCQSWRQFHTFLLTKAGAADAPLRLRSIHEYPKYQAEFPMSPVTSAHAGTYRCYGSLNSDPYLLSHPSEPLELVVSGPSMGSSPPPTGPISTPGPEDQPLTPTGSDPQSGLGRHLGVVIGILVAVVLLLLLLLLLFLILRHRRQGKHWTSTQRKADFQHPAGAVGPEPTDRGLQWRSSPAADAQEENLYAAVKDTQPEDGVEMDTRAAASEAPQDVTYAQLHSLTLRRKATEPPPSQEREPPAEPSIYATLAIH
Method: as §3

[5] = target: T1, extracellular domain of human ILT3 …; assay: SPR (Biacore), antibody captured via anti-Fc on CM5 chip, soluble ILT3-ECD injected, 37 C; remark: listed apart in the source
Method: as §1
(§4) The binding affinity of Hz5A7.v5 to human ILT3 and cyno ILT3 was determined using a Biacore system as described herein and compared with the binding affinity of the parental chimeric 5A7 (ch5A7) antibody and humanized 5A7 without any CDR modifications (Hz5A7.v1) (see Table 12).

[6] = target: T2, extracellular domain of cyno ILT3 …; assay: as above
Method: as §1, §4

B1: Hz45G10 B1/A4 (antibody, V domains shown)
VH: EVQLVESGGGLVKPGGSLRLSCAASGFTFSDYGMHWVRQAPGKGLEWVSYIFSGSSTIYYADTVKGRFTISRDNAKNSLYLQMNSLRAEDTAVYYCARADGRGAMDYWGQGTLVTVSS
VL: DIQMTQSPSSLSASVGDRVTITCRASQDISKFLNWYQQKPGKAPKLLIYYTSRLHSGVPSRFSGSGSGTDFTFTISSLQPEDIATYFCQQGNTLPWTFGGGTKLEIK
B1 gave a Kd [1] of 0.2 nM, a koff [1] of 0.00026 s⁻¹ and a kon [1] of 1.3e+06 M⁻¹ s⁻¹. The Kd [2] was 76 nM, the koff [2] was 0.09 s⁻¹ and the kon [2] was 1.2e+06 M⁻¹ s⁻¹.

B2: 48A6 chimera (antibody, V domains shown)
VH: EVQLVESGGDLMKPGGSLKLSCAASGFTFSSYGMSWVRQTPDKRLEWVATISSGGTYTFYPDSVKGRFTISRDNAKNTLYLQMSSLKSEDTAMYYCARRGWLLHYYAMDYWGQGTSVTVSS
VL: NIVLTQSPASLAVSLGQRATISCRPSESVDSFGNSFMHWFQQKPGQPPKLLIYLSSKLESGVPARFSGSGSRTDFTLTIDPVEADDAATYYCQQHNEDPFTFGSGTKLEIK
notes: also called parental chimeric 48A6
B2 gave a Kd [1] of 0.066 nM, a koff [1] of 0.000868 s⁻¹ and a kon [1] of 1.31e+07 M⁻¹ s⁻¹. The Kd [2] was 54 nM, the koff [2] was 0.11 s⁻¹ and the kon [2] was 1.99e+06 M⁻¹ s⁻¹.

B3: anti-ILT3 antibody 12A12 (antibody, V domains shown)
VH: EVQLQQSGPELVKPGASVKISCKASGYTFTDYNMDWVKQSHGKSLEWIGYIYPNNGGTGYNQKFNSKATLTVDKSSSTAYMELHSLTSEDSAVYYCASSPYYDYVGSYAMDYWGQGTSVTVSS
VL: QIVLTQSPAIMSASLGERVTMTCTASSSVSSSYLHWYQQKPGSSPKLWIYSTSNLASGVPARFSGSGSGTSYSLTISSMEAEDAATYYCHQYHRSPRTFGGGTKLEIK
notes: Mouse monoclonal antibody from hybridoma
In the case of B3, the Kd [3] is reported as 8.5 nM, the koff [3] is reported as 0.00094 s⁻¹ and the kon [3] is reported as 110000 M⁻¹ s⁻¹. For the same binder, the Kd [4] was 1.9 nM, the koff [4] was 0.00028 s⁻¹ and the kon [4] was 150000 M⁻¹ s⁻¹.

B4: anti-ILT3 antibody 3A3 (antibody, V domains shown)
VH: QVQLKESGPGLVAPSQSLSITCTVSGFSLTSYGVHWVRQPPGKGLEWLGVIWPGGTINYNSALMSRLSISKDNSKSQVFLKLNSLQTDDTAMYYCASDKYDGGWFAYWGQGTLVTVSA
VL: DIVMTQSQKFMSTSVGDRVSITCKASQNVRTAVAWYQQKPGQSPEALIYLASNRHTGVPDRFTGSGSGTDFSLSISNVQSEDLADYFCLQHLNYPLTFGSGTKLEIK
notes: as for B3
B4 was tested, and the Kd [3] was 2 nM, the koff [3] was 0.00065 s⁻¹ and the kon [3] was 330000 M⁻¹ s⁻¹. The Kd [4] was 6.3 nM, the koff [4] was 0.021 s⁻¹ and the kon [4] was 3.4e+06 M⁻¹ s⁻¹.

B5: anti-ILT3 antibody 53F10 (antibody, V domains shown)
VH: EVQVVESGGGLVKPGGSLKLSCAASGFTFSDYGMHWVRQAPEKGLEWVAYISTGIITVYYADTVKGRFTMSRDNAKNTLFLQMTSLRSEDTAIYYCARADGRGAMDYWGQGTSVIVSS
VL: DIQMTQTTSSLSASLGDRVTISCRASQDISNFLNWYQQKPDGTVTLLIYYTSRLHSGVPSRFSGSGSGTDYSLTISNLEQEDFATYFCQQGNTLPWTFGGGTKLEIK
notes: as for B3
B5 was tested, and the Kd [3] was 0.24 nM, the koff [3] was 8e-05 s⁻¹ and the kon [3] was 330000 M⁻¹ s⁻¹. It also gave a Kd [4] of 9.4 nM, a koff [4] of 0.0055 s⁻¹ and a kon [4] of 590000 M⁻¹ s⁻¹. B5: no binding (tested: log [Ab] about -7.2 M (about 6e-8 M)) (human LILRA1); no binding (tested: log [Ab] about -7.2 M (about 6e-8 M)) (Cyno LILRB5); no binding (tested: log [Ab] about -7.2 M (about 6e-8 M)) (LILRB5). B5: no binding (tested: log [Ab] about -7.2 M (about 6e-8 M)) (human LILRA6); no binding (tested: log [Ab] about -7.2 M (about 6e-8 M)) (human LILRA2); no binding (tested: log [Ab] about -7.2 M (about 6e-8 M)) (human LILRA5). The binding result (human LILRA4) was “no binding (tested: log [Ab] about -7.2 M (about 6e-8 M))”, the “EC50 (read off the curve)” value (LILRB4) was about 400 pM and the binding result (LILRB3) was “no binding (tested: log [Ab] about -7.2 M (about 6e-8 M))”. B5: no binding (tested: log [Ab] about -7.2 M (about 6e-8 M)) (human LILRB2).

B6: anti-ILT3 antibody 45G10 (antibody, V domains shown)
VH: B1 VH with R19K, G42E, S49A, S78T, Y80F, N84T, A88S, V93M, L113S
VL: B5 VL with I2V, N31K, E79D, F83I
notes: as for B3
In the case of B6, the Kd [3] is reported as 0.13 nM, the koff [3] is reported as 5.1e-05 s⁻¹ and the kon [3] is reported as 390000 M⁻¹ s⁻¹. The Kd [4] was 5 nM, the koff [4] was 0.00076 s⁻¹ and the kon [4] was 150000 M⁻¹ s⁻¹.

B7: Hz5A7.v1 (humanized 5A7 without any CDR modifications) (antibody, V domains shown)
VH: EVQLVESGGGLVQPGGSLRLSCAASGFTFSSYGMSWVRQAPGKGLEWVATISGGGSYTNYPDSVKGRFTISRDNAKNSLYLQMNSLRAEDTAVYYCARREWRMTLYAMDYWGQGTTVTVSS
VL: DIQLTQSPSFLSASVGDRVTITCRASESVDSYGNSFMHWYQQKPGKAPKLLIYLTSNLESGVPSRFSGSGSGTEFTLTISSLQPEDFATYYCQQNNEDPFTFGQGTKLEIK
With B7 the Kd [5] was 0.48 nM, the koff [5] was 0.0012 s⁻¹ and the kon [5] was 2.5e+06 M⁻¹ s⁻¹. The Kd [6] was 0.65 nM, the koff [6] was 0.0077 s⁻¹ and the kon [6] was 1.2e+07 M⁻¹ s⁻¹.
